Laboratory results: article PMC5847613 (Scientific Reports, 2018)

Legend:
Conditions in all cases: both partners purified
[1] = molecular target: recombinant HA of A/South Carolina/01/1918 H1N1 (Influenza A virus A/South …, UniProt Q9WFX3, strain); experiment: mPLEX-Flu multiplex fluorescent-bead assay (Luminex)
[2] = molecular target: recombinant HA of A/USSR/1977 H1N1 (Influenza A virus A/USSR/90/1977 …, UniProt P03453, strain); experiment: as above
[3] = molecular target: recombinant influenza B HA (B/Brisbane/60/08) (Influenza B virus B/Brisbane/60/2008, UniProt C0LT35, strain); experiment: ELISA
[4] = molecular target: recombinant influenza A H1 HA (A/Brisbane/59/07) (Influenza A virus A/Brisbane/59/2007 …, UniProt D5F1Q8, strain); experiment: ELISA
[5] = molecular target: T1, recombinant HA of pH1N1 A/California/04/2009 (Influenza A virus A/California/04/2009 …, UniProt C3W5S1, strain); experiment: SPR
T1 construct: source: bought: Protein Sciences Corp., Meriden, CT

B1: KPF1 human monoclonal antibody (antibody, V domains shown)
VH: EVQLLESGGGLVQPGGSLRISCAASGSTFGDFAMSWVRQSPGRGLEWVSVTSAGGDRTYYADSVKGRFTISRDNSKNTLYLQMNSLRGEDTAMYYCARLDSSGFHYGRPGRNWGQGTLVTVSS
VL: DIQMTHSPPSLSASVGDRITITCQASQDISYYLIWYQQKPGKAPKPLIYDASNLEAGVPSRFSASGSGTDFTLTISSLQPEDLATYYCQQYKSLPYTFGQGTKLEIK
notes: also called KPF1 hmAb; hmAb KPF1
B1: binds [1]; no binding (tested: 1 μg/ml) [2]; no binding [3]. For the same binder, the binding result [4] was “binds” and the Kd [5] was 178 pM.
